These results are taken from patent publication US20160333308A1.

Series [1] has as its system activator protein (ACT) from Bacillus methanolicus PB1.
Series [2] addresses methanol dehydrogenase MDH2 from Bacillus methanolicus PB1 (Bacillus methanolicus PB1). In words: cell-based or functional assay.

With “methanol dehydrogenase MDH2 from Bacillus methanolicus PB1”, the “Km for methanol of MDH2 with ACT, crude lysates” value in series [1] is on record as “a Km of 119 mM”.

The substance “activator protein (ACT) from Bacillus methanolicus PB1” came in with a specific activity of MDH2 with ACT, crude lysates in series [2] of 0.009 µmol/min/mg.
